# According to patent US11230719B2, “Retroviral vector having immune-stimulating activity” (DENOVO BIOPHARMA LLC, priority 2014, dated 2022):
# B1: recombinant mIFNg produced by the virus producer cells: mouse IFNg in supernatant of virus producer cells (protein, UniProt P01580 23-155, looked up)
# Interferon gamma: HGTVIESLESLNNYFNSSGIDVEEKSLFLDIWRNWQKDGDMKILQSQIISFYLRLFEVLKDNQAISNNISVIESHLITTFFSNSKAKKDAFMSIAKFEVNNPQVQRQAFNELIRVVHQLLPESSLRKRKRSRC
# B2: mIL-2: recombinant mouse IL-2 produced by the HA-L2 cells (protein, UniProt P04351 21-169, looked up)
# Interleukin-2: APTSSSTSSSTAEAQQQQQQQQQQQQHLEQLLMDLQELLSRMENYRNLKLPRMLTFKFYLPKQATELKDLQCLEDELGPLRHVLDLTQSKSFQLEDAENFISNIRVTVVKLKGSDNTFECQFDDESATVVDFLRRWIAFCQSIISTSPQ
# B3: IFNγ: interferon gamma used to induce IDO1 and PDL1 expression in cell lines (protein, UniProt P01579 24-161, looked up)
# Interferon gamma: QDPYVKEAENLKKYFNAGHSDVADNGTLFLGILKNWKEESDRKIMQSQIVSFYFKLFKNFKDDQSIQKSVETIKEDMNVKFFNSNKKKRDDFEKLTNYSVTDLNVQRKAIHELIQVMAELSPAAKTGKRKRSQMLFRG
# B4: recombinant hIFNg produced from the virus producer cells: human IFNg in supernatant of virus producer cells (protein, UniProt P01579 24-161, looked up)
# Interferon gamma: B3 Interferon gamma
# Columns and labels:
# [1] = tested on: HA-L2g cells transduced with pBA9b-hIFNg-yCD2 vector; assay: MTS cell viability of HA-L2g cells transduced with pBA9b-hIFNg-yCD2; format: cell-based, human
# Protocol: The concentration PALA required to kill HA-L2g cells transduced with pBA9b-hIFNg-yCD2 vector is determined. Cells are seeded at 1e3 cells in 96-well plates the day before. At 24 hour post cell seeding, PALA at 1, 10, 50 and 100 μM are added to the culture for 4 consecutive days followed MTS assay to determine the cell viability. […] A range of cytosine concentrations are also determined (0.2, 1, 5 10 mM) in culture by performing the same experiment described above.
# CT-26 = assay: mIFNg-induced MHC Class I upregulation in CT-26 cells (flow cytometry); format: cell-based, mouse; settings: vs purified recombinant protein from E. coli
# Protocol: (§1) To verify the bioactivity of recombinant hIFNg and mIFNg produced from the virus producer cell, upregulation of MHC Class I cell surface expression by flow cytometry was performed. Supernatant of known IFNg concentration were incubated with species-matched mouse colon carcinoma cell line, CT-26 or human fibrosarcoma cell line, HT1080. The degree of upregulation measured by mean fluorescent intensity (MFI) was compared to a standard which are purified recombinant protein expressed from E. coli. […] The recombinant hIFNg produced from the virus producer cells are 3-5 fold higher than that produced from E. coli (FIG. 2B). The difference is likely due to the differences in amino acid composition as well as glycosylation pattern.
# CTLL-2 = assay: IL-2 bioactivity, CTLL-2 proliferation (3H-thymidine incorporation); format: cell-based, mouse; settings: produced by HA-L2 cells; vs recombinant IL-2 from E. coli
# Protocol: CTLL-2 cell growth depends greatly on the presence of IL-2. The bioactivity of IL-2 is determined by the level of ^3H-thymidine incorporation into the DNA of proliferating cells. […] In addition, the level of CD expression from pBA9b-IFNg-yCD2 transduced HA-L2 cells is also detected by immunoblotting using an antibody against CD.
# PDL1 = assay: PD-L1 cell surface expression in cancer cell lines before and after IFNγ induction; format: cell-based, human; settings: panel of cancer cell lines including glioma
# Excerpt: Its expression can be further induced by IFNγ. A panel of cancer cell lines including glioma cell lines is surveyed for their PDL1 expression (anti-human PD-L1 antibody, eBioscience) before and after IFNγ induction.
# TGFβ1, 2 and 3 = TGFβ1, 2 and 3 gene expression (Taqman) in cancer cell lines before and after IFNγ treatment; format: cell-based, human; settings: panel of cancer cell lines including glioma
# Excerpt: A panel of cancer cell lines including glioma cell lines were surveyed for their TGFβ1, 2 and 3 expression before and after IFNγ treatment using human TGF isoform-specific Taqman primers (Life Technology). […] Some expression more TGFβ1 and others express more TGFβ2. In all cases, TGFβ3 expression is low. In contrast to IDO1 and PDL1, TGFβ1, 2 and 3 expression is not induced by IFNγ.
# IDO1 = IDO1 protein expression in glioma cell lines after IFNγ induction; format: cell-based, human; settings: panel of glioma cell lines; level of induction varies
# Excerpt: A panel of glioma cell lines were surveyed for their IDO1 expression after IFNγ induction. […] GAPDH (anti-human GAPDH at 1:500, Cell Signaling) detection was included as a loading control.
# HT1080 = assay: hIFNg-induced MHC Class I upregulation in HT1080 cells (flow cytometry); format: cell-based, human; settings: MFI
# Protocol: as §1
molecule,measurement,setting,value
"O=C(O)C[C@H](NC(=O)CP(=O)(O)O)C(=O)O [PALA, N-(phosphonacetyl)-L-aspartate]",cell viability with PALA,"[1]; 1, 10, 50 and 100 μM, 4 consecutive days",sensitive to PALA at 10 μM and plateau at 50 μM
Nc1cc[nH]c(=O)n1 [cytosine],cell viability with cytosine,"[1]; 0.2, 1, 5, 10 mM",can tolerate cytosine in all concentrations tested
B1,"bioactivity (MHC Class I upregulation, MFI)",CT-26,comparable to that of recombinant mIFNg produced by E. coli
B2,IL-2 bioactivity,CTLL-2,comparable
B3,PDL1 expression further induced by IFNγ,PDL1,"most of the cells lines, but not all, tested here are responsive"
same,"TGFβ1, 2 and 3 expression induced by IFNγ","TGFβ1, 2 and 3",not induced
same,IDO1 expression after IFNγ induction,IDO1,upregulated
B4,bioactivity higher than that produced from E. coli,HT1080,3-5 fold
